First the molecules themselves.
T1: human CD19 (human, UniProt P15391 20-556)
T1 construct: also called B-cell surface antigen B4; B-cell antigen CD19
T1 sequence: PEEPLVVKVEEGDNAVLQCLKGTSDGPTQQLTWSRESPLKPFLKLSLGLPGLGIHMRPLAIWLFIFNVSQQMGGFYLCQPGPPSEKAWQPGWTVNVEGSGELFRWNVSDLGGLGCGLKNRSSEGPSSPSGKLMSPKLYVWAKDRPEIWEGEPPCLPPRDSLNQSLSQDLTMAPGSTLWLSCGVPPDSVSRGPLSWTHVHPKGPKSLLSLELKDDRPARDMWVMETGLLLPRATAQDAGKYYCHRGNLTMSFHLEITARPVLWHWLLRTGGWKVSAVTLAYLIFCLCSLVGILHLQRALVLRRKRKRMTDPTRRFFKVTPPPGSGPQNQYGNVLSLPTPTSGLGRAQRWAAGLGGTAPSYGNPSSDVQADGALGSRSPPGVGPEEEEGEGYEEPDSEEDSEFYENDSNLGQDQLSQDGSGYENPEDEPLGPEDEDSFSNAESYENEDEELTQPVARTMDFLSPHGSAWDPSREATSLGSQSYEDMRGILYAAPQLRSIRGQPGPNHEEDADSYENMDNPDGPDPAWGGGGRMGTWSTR

B1: H1 / L1.55 (antibody, V domains shown)
VH: EVQLVESGGGLVKPGGSLKLSCAASGYTFTSYVMHWVRQAPGKGLEWIGYINPYNDGTKYNEKFQGRVTISSDKSISTAYMELSSLRSEDTAMYYCARGTYYYGSRVFDYWGQGTLVTVSS
VL: DIVMTQSPATLSLSPGERATLSCRSSKSLLNSNGNTYLYWFQQKPGQSPQLLIYRMSYLASGVPDRFSGSGSGTEFTLTISSLEPEDFAVYYCMQHLEYPFTFGAGTKLEIK
notes: vs H1L1 (Kabat): VL N53Y; also called 4G7 H1_L1.55
B2: H1.191 / L1.163 (antibody, V domains shown)
VH: B1 VH with K59E, S105T
VL: B1 VL with L30Q, S32A, G34S, Y58N, A60N, F101I
notes: vs H1L1 (Kabat): VH K58E/S100cT; VL L27cQ/S27eA/G29S/A55N/F96I; also called 4G7 H1.191_L1.163
B3: H1.201 / L1.162 (antibody, V domains shown)
VH: B1 VH with D56S, S105T
VL: B1 VL with L30Q, S32A, G34A, Y58N, A60N, F101I
notes: vs H1L1 (Kabat): VH D55S/S100cT; VL L27cQ/S27eA/G29A/A55N/F96I; also called 4G7 H1.201_L1.162
B4: H1.203 / L1.162 (antibody, V domains shown)
VH: B1 VH with D56S, K59E, S105T
VL: B1 VL with L30Q, S32A, G34A, Y58N, A60N, F101I
notes: vs H1L1 (Kabat): VH D55S/K58E/S100cT; VL L27cQ/S27eA/G29A/A55N/F96I; also called 4G7 H1.203_L1.162
B5: H1.202 / L1.163 (antibody, V domains shown)
VH: B1 VH with D56E, S105T
VL: B1 VL with L30Q, S32A, G34S, Y58N, A60N, F101I
notes: vs H1L1 (Kabat): VH D55E/S100cT; VL L27cQ/S27eA/G29S/A55N/F96I; also called 4G7 H1.202_L1.163
B6: H1.204 / L1.163 (antibody, V domains shown)
VH: B1 VH with D56E, K59E, S105T
VL: B1 VL with L30Q, S32A, G34S, Y58N, A60N, F101I
notes: vs H1L1 (Kabat): VH D55E/K58E/S100cT; VL L27cQ/S27eA/G29S/A55N/F96I; also called 4G7 H1.204_L1.163
B7: H1.204 / L1.161 (antibody, V domains shown)
VH: B1 VH with D56E, K59E, S105T
VL: B1 VL with L30Q, S32V, G34S, Y58N, A60N, F101I
notes: vs H1L1 (Kabat): VH D55E/K58E/S100cT; VL L27cQ/S27eV/G29S/A55N/F96I; also called 4G7 H1.204_L1.161
B8: H1.191 / L1.162 (antibody, V domains shown)
VH: B1 VH with K59E, S105T
VL: B1 VL with L30Q, S32A, G34A, Y58N, A60N, F101I
notes: vs H1L1 (Kabat): VH K58E/S100cT; VL L27cQ/S27eA/G29A/A55N/F96I; also called 4G7 H1.191_L1.162
B9: H1.201 / L1.163 (antibody, V domains shown)
VH: B1 VH with D56S, S105T
VL: B1 VL with L30Q, S32A, G34S, Y58N, A60N, F101I
notes: vs H1L1 (Kabat): VH D55S/S100cT; VL L27cQ/S27eA/G29S/A55N/F96I; also called 4G7 H1.201_L1.163
B10: H1 / L1.67 (antibody, V domains shown)
VH: B1 VH
VL: B1 VL with Y58N, F101V
notes: vs H1L1 (Kabat): VL F96V; also called 4G7 H1_L1.67
B11: H1 / L1.64 (antibody, V domains shown)
VH: B1 VH
VL: B1 VL with Y58N, F101I
notes: vs H1L1 (Kabat): VL F96I; also called 4G7 H1_L1.64
B12: H1 / L1.92 (antibody, V domains shown)
VH: B1 VH
VL: B1 VL with Y58N, A60L
notes: vs H1L1 (Kabat): VL A55L; also called 4G7 H1_L1.92
B13: H1.52 / L1.161 (antibody, V domains shown)
VH: B1 VH with S105T
VL: B1 VL with L30Q, S32V, G34S, Y58N, A60N, F101I
notes: vs H1L1 (Kabat): VH S100cT; VL L27cQ/S27eV/G29S/A55N/F96I; also called 4G7 H1.52_L1.161
B14: H1.52 / L1.162 (antibody, V domains shown)
VH: B1 VH with S105T
VL: B1 VL with L30Q, S32A, G34A, Y58N, A60N, F101I
notes: vs H1L1 (Kabat): VH S100cT; VL L27cQ/S27eA/G29A/A55N/F96I; also called 4G7 H1.52_L1.162
B15: H1.201 / L1.164 (antibody, V domains shown)
VH: B1 VH with D56S, S105T
VL: B1 VL with L30Q, S32A, Y58N, A60N, F101I
notes: vs H1L1 (Kabat): VH D55S/S100cT; VL L27cQ/S27eA/A55N/F96I; also called 4G7 H1.201_L1.164
B16: H1.203 / L1.163 (antibody, V domains shown)
VH: B1 VH with D56S, K59E, S105T
VL: B1 VL with L30Q, S32A, G34S, Y58N, A60N, F101I
notes: vs H1L1 (Kabat): VH D55S/K58E/S100cT; VL L27cQ/S27eA/G29S/A55N/F96I; also called 4G7 H1.203_L1.163
B17: H1.202 / L1.162 (antibody, V domains shown)
VH: B1 VH with D56E, S105T
VL: B1 VL with L30Q, S32A, G34A, Y58N, A60N, F101I
notes: vs H1L1 (Kabat): VH D55E/S100cT; VL L27cQ/S27eA/G29A/A55N/F96I; also called 4G7 H1.202_L1.162
B18: H1.204 / L1.162 (antibody, V domains shown)
VH: B1 VH with D56E, K59E, S105T
VL: B1 VL with L30Q, S32A, G34A, Y58N, A60N, F101I
notes: vs H1L1 (Kabat): VH D55E/K58E/S100cT; VL L27cQ/S27eA/G29A/A55N/F96I; also called 4G7 H1.204_L1.162
B19: H1 / L1.96 (antibody, V domains shown)
VH: B1 VH
VL: B1 VL with Y58N, A60N
notes: vs H1L1 (Kabat): VL A55N; also called 4G7 H1_L1.96
B20: H1.203 / L1.164 (antibody, V domains shown)
VH: B1 VH with D56S, K59E, S105T
VL: B1 VL with L30Q, S32A, Y58N, A60N, F101I
notes: vs H1L1 (Kabat): VH D55S/K58E/S100cT; VL L27cQ/S27eA/A55N/F96I; also called 4G7 H1.203_L1.164
B21: H1.52 / L1.163 (antibody, V domains shown)
VH: B1 VH with S105T
VL: B1 VL with L30Q, S32A, G34S, Y58N, A60N, F101I
notes: vs H1L1 (Kabat): VH S100cT; VL L27cQ/S27eA/G29S/A55N/F96I; also called 4G7 H1.52_L1.163
B22: H1 / L1.80 (antibody, V domains shown)
VH: B1 VH
VL: B1 VL with Y39F, Y58N
notes: vs H1L1 (Kabat): VL Y34F; also called 4G7 H1_L1.80
B23: H1 / L1.68 (antibody, V domains shown)
VH: B1 VH
VL: B1 VL with Y58N, F101N
notes: vs H1L1 (Kabat): VL F96N; also called 4G7 H1_L1.68
B24: H2L2 (antibody, V domains shown)
VH: QVQLQESGSGLVKPGGSLRLSCAASGYTFTSYVMHWVRQAPGKGLEWMGYINPYNDGTKYNESLKSRVTISSDKSISTAYMELSSLRAEDTAVYYCARGTYYYGSRVFDYWGQGTLVTVSS
VL: B1 VL with A9S, T10S, L13A, P15V, E17D, A19V, L21I, Y58N, E84Q, F88V
notes: also called 4G7 H2L2
B25: H0L1 (antibody, V domains shown)
VH: EVQLQQSGPELIKPGASVKMSCKASGYTFTSYVMHWVKQKPGQGLEWIGYINPYNDGTKYNEKFKGKATLTSDKSSSTAYMELSSLTSEDSAVYYCARGTYYYGSRVFDYWGQGTTLTVSS
VL: B1 VL with Y58N
notes: also called 4G7 H0L1
B26: H1L0 (antibody, V domains shown)
VH: B1 VH
VL: DIVMTQAAPSIPVTPGESVSISCRSSKSLLNSNGNTYLYWFLQRPGQSPQLLIYRMSNLASGVPDRFSGSGSGTAFTLRISRVEAEDVGVYYCMQHLEYPFTFGAGTKLELK
notes: also called 4G7 H1L0
B27: H2L0 (antibody, V domains shown)
VH: B24 VH
VL: B26 VL
notes: also called 4G7 H2L0
B28: H3L1 (antibody, V domains shown)
VH: B1 VH with K13Q, G16R, K19R, A40M, I48M, S71T, I76T, S85R, E89D, M93V
VL: B1 VL with Y58N
notes: also called 4G7 H3L1
B29: H2L1 (antibody, V domains shown)
VH: B24 VH
VL: B1 VL with Y58N
notes: also called 4G7 H2L1
B30: H0L2 (antibody, V domains shown)
VH: B25 VH
VL: B1 VL with A9S, T10S, L13A, P15V, E17D, A19V, L21I, Y58N, E84Q, F88V
notes: also called 4G7 H0L2
B31: H3L0 (antibody, V domains shown)
VH: B1 VH with K13Q, G16R, K19R, A40M, I48M, S71T, I76T, S85R, E89D, M93V
VL: B26 VL
notes: also called 4G7 H3L0
B32: H1L2 (antibody, V domains shown)
VH: B1 VH
VL: B1 VL with A9S, T10S, L13A, P15V, E17D, A19V, L21I, Y58N, E84Q, F88V
notes: also called 4G7 H1L2
B33: H0L3 (antibody, V domains shown)
VH: B25 VH
VL: B1 VL with L13V, L21I, Q42L, Y58N, E75D, S82R, L83V, P85A, F88V, A89G
notes: also called 4G7 H0L3

Substitutions are numbered along the chain they refer to. Names and notes keep the numbering of the source.

One assay concerns the target T1, human CD19. Nature of the assay: binding affinity relative to the parent H1L1 mAb (Example 5); assay and format not named on the sheet.
On to B1, for which the Fold change binding came out at 1.58 fold.

With B2, the Fold change binding was determined as 5.32 fold.

Turning to B3, the Fold change binding was 3.97 fold.

As for B4, the Fold change binding was 3.25 fold.

Consider B5, for which the Fold change binding was determined as 3.57 fold.

As to B6, the Fold change binding turned out to be 4.73 fold.

With B7, the Fold change binding was 3.27 fold.

With B8, the Fold change binding stood at 3.35 fold.

Regarding B9, the Fold change binding was determined as 3.87 fold.

On to B10, for which the Fold change binding was 1.73 fold.

With B11, the Fold change binding was determined as 1.8 fold.

On to B12, for which the Fold change binding stood at 1.54 fold.

With B13, the Fold change binding stood at 3.18 fold.

Consider B14, for which the Fold change binding is 5.57 fold.

Consider B15, for which the Fold change binding came out at 4.41 fold.

Turning to B16, the Fold change binding was found to be 3.2 fold.

Consider B17, for which the Fold change binding was 4.32 fold.

Regarding B18, the Fold change binding worked out at 4.07 fold.

Regarding B19, the Fold change binding came out at 1.58 fold.

On to B20, for which the Fold change binding was 5.58 fold.

B21: the Fold change binding was determined as 3.74 fold.

Consider B22, for which the Fold change binding was 1.62 fold.

Regarding B23, the Fold change binding is 2.12 fold.

The target in another assay is T1, human CD19. Nature of the assay: DELFIA competition on Raji cells: unlabeled antibody competes with Eu-labeled anti-CD19 for surface CD19 [upper panel].
Turning to B24, the binding result is “binds”.

On to B25, for which the “IC50 (read off the curve)” value was roughly 3 nM.

As for B26, the “IC50 (read off the curve)” value is roughly 20 nM.

As to B27, the binding result is listed as “binds”.

With B28, the binding result is given as “binds”.

Regarding B29, the binding result is given as “binds”.

B30: the “IC50 (read off the curve)” value was roughly 2 nM.

With B31, the binding result is reported as “binds”.

In the case of B32, the binding result was “binds”.

On to B33, for which the “IC50 (read off the curve)” value is roughly 3 nM.

Values taken from US20100272723A1 (Xencor, published 2010).
